Test results as given in patent publication US20260242478A1 (published 2026).
Where no end group is shown, it is not given here.

B1: Peptide-134 (peptide)
peptide: YCEGHLPEYIQKCL
modifications: not fully specified; cysteine pairing not given here; also: biotinylated, site not given here
B2: Peptide-285 (peptide)
peptide: VERLCTPAWMCHGF
notes: From the Peptide-180 optimisation phage library
B3: Peptide-286 (peptide)
peptide: VLKYCIPDWMCAGI
notes: as for B2
B4: Peptide-283 (peptide)
peptide: TVAYCKPAWMCQGF
notes: as for B2
B5: Peptide-284 (peptide)
peptide: TEVRCTPPWMCLGF
notes: as for B2
B6: Peptide-282 (peptide)
peptide: IVVKCVPSWMCEGF
notes: as for B2
B7: Peptide-260 (peptide)
peptide: IAVLCQPNWMCAGA
notes: Alanine-scan variant F14A of Peptide-180
B8: Peptide-259 (peptide)
peptide: IAVLCQPNWMCAAF
notes: Alanine-scan variant G13A of Peptide-180
B9: Phage-443 (peptide)
peptide: MDWCPMTRWNDCYF
notes: Clone of the Peptide-9 optimisation library
B10: Phage-450 (peptide)
peptide: EDWCPTDVWPYCFS
notes: as for B9
B11: Phage-451 (peptide)
peptide: MDWCPRFWWHECYA
notes: as for B9
B12: Phage-445 (peptide)
peptide: MDWCPRARWHDCFF
notes: as for B9
B13: Phage-442 (peptide)
peptide: IYWCPIDRWNDCYN
notes: as for B9
B14: Phage-449 (peptide)
peptide: MVDCPLISFDECLA
notes: as for B9
B15: Phage-452 (peptide)
peptide: MDWCPRDWWHMCFN
notes: as for B9
B16: Phage-447 (peptide)
peptide: MDWCPRDRWDVCYY
notes: as for B9
B17: Phage-446 (peptide)
peptide: MDWCPRDRWDDCFN
notes: as for B9
B18: Phage-448 (peptide)
peptide: MAWCPWASFDECLA
notes: as for B9
B19: Phage-453 (peptide)
peptide: MDWCPSDYWYVCFA
notes: as for B9

These binders were tested against T1, PSMA Fab (assay: competition ELISA; peptide 0-100 µM with 0.3 nM PSMA Fab on plate-captured biotinylated PSMA).
T1 construct: also called 006 PSMA Fab; anti-PSMA Fab

Point of comparison: IPKSCIPSWMCTGF [Peptide-225], IC50 340 nM. Against it:
- LMKWCTPRWMCAAE (cysteine pairing not given here; also: biotinylated, site not given here, PSMA mask peptide) [Peptide-179] — 23-fold higher, 7710 nM
- GEKWCIPDWMCSGF [Peptide-233] — within 1.5-fold, 360 nM
- IDIRCTPIWMCVGF [Peptide-239] — 1.8-fold higher, 620 nM
- LDKWCVPKWMCSGL [Peptide-232] — 2.8-fold higher, 960 nM
- DVKLCKPEWMCYGL [Peptide-236] — within 1.5-fold, 380 nM
- LDNWCKPSWMCTGF [Peptide-227] — 2.2-fold higher, 760 nM
- VEKLCTPIWMCLGF [Peptide-235] — within 1.5-fold, 320 nM

What follows are binders tested against T2, anti-CD28 scFv (disulfide) (assay: competition ELISA: peptide titrated (0-100 µM) with 0.3 nM anti-CD28 scFv (disulfide), binding to plate-bound CD28).
T2 construct: also called Anti-CD28 scFv (VH - linker 1 - VL) Disulfide mutation: G44C, G235C
T2 sequence (scFv, as listed by the source): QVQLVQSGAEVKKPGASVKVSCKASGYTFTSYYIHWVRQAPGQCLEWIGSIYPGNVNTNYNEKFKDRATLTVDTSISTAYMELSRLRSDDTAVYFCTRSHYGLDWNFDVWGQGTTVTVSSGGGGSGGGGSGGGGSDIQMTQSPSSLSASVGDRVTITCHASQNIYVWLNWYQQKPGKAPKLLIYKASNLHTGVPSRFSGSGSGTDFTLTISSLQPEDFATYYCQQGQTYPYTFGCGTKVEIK

Point of comparison: B1, IC50 480 nM. Against it:
- YCEGHLPEYRNKCL (cysteine pairing not given here; also: biotinylated, site not given here) [Peptide-132] — 1.6-fold higher, 780 nM

Each binder was assayed against T1, PSMA Fab (assay: binding ELISA; PSMA Fab titrated on plate-captured biotinylated peptide).

Point of comparison: IPKSCIPSWMCTGF [Peptide-225], EC50 9.7 nM. Against it:
- LMKWCTPRWMCAAE (cysteine pairing not given here; also: biotinylated, site not given here, PSMA mask peptide) [Peptide-179] — 11-fold higher, 110 nM
- GEKWCIPDWMCSGF [Peptide-233] — within 1.5-fold, 6.9 nM
- IDIRCTPIWMCVGF [Peptide-239] — within 1.5-fold, 9.4 nM
- LDKWCVPKWMCSGL [Peptide-232] — within 1.5-fold, 7.2 nM
- DVKLCKPEWMCYGL [Peptide-236] — 2-fold higher, 19.8 nM
- LDNWCKPSWMCTGF [Peptide-227] — within 1.5-fold, 7.7 nM
- HVKLCKPAWMCQGL [Peptide-219] — 1.6-fold lower, 6.1 nM
- VEKLCTPIWMCLGF [Peptide-235] — within 1.5-fold, 10.5 nM

These binders were tested against anti-CD28 Fab (assay: competition ELISA, peptide titrated 0-100 uM against 1 nM anti-CD28 Fab, plate-bound CD28 as competitor).
Target sequence in this assay (VH, as listed by the source, chain 1 of 2): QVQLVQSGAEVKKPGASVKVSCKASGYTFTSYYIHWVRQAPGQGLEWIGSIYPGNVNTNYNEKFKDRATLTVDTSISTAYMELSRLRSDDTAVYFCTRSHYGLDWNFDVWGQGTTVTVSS
Target sequence in this assay (VL, as listed by the source, chain 2 of 2): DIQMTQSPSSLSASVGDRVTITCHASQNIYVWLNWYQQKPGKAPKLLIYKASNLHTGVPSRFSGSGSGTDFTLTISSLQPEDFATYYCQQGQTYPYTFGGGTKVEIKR

SCAAGASYAWPYCL [Peptide-92] was tested, and the IC50 was 7.89 µM.

The binders below were run against T1, PSMA Fab (assay: BLI (Octet); PSMA Fab on sensor-loaded biotinylated peptide, 1:1 model).

Point of comparison: B4, “Off rate t1/2” value 1.4 min. Against it:
- B2 — within 1.5-fold, 1.1 min
- B3 — 2.4-fold higher, 3.3 min
- IAVLCQPNWMCAGF (cysteine pairing not given here; also: biotinylated, site not given here, PSMA mask peptide) [Peptide-180] — 2.3-fold lower, 0.6 min
- B5 — the same, 1.4 min
- B6 — within 1.5-fold, 1.9 min

Target: T1, PSMA Fab
Test: as above
Remark: another data set of the same source

Point of comparison: HVKLCKPAWMCQGL [Peptide-219], “Off rate t1/2” value 2.9 min. Against it:
- LMKWCTPRWMCAAE (cysteine pairing not given here; also: biotinylated, site not given here, PSMA mask peptide) [Peptide-179] — 2.4-fold lower, 1.2 min
- GEKWCIPDWMCSGF [Peptide-233] — within 1.5-fold, 3.9 min
- IDIRCTPIWMCVGF [Peptide-239] — within 1.5-fold, 2 min
- LDKWCVPKWMCSGL [Peptide-232] — within 1.5-fold, 2.1 min
- DVKLCKPEWMCYGL [Peptide-236] — 1.6-fold lower, 1.8 min
- LDNWCKPSWMCTGF [Peptide-227] — within 1.5-fold, 2.1 min
- IPKSCIPSWMCTGF [Peptide-225] — within 1.5-fold, 2.1 min
- VEKLCTPIWMCLGF [Peptide-235] — within 1.5-fold, 2.3 min
- VTKWCIPPWMCEVT [Peptide-230] — 2.2-fold higher, 6.4 min

Target: T1, PSMA Fab
Test: competition ELISA; peptide 0-100 µM with 0.3 nM PSMA Fab on plate-captured biotinylated PSMA
Remark: another data set of the same source

Point of comparison: B5, IC50 970 nM. Against it:
- B2 — within 1.5-fold, 710 nM
- B3 — 1.5-fold lower, 640 nM
- B4 — within 1.5-fold, 820 nM
- IAVLCQPNWMCAGF (cysteine pairing not given here; also: biotinylated, site not given here, PSMA mask peptide) [Peptide-180] — 4.3-fold higher, 4140 nM
- B6 — 5.1-fold lower, 190 nM

Target: T1, PSMA Fab
Test: as above
Remark: another data set of the same source
Description: (§1) The concentration of peptide required to reduce the maximum signal by 50% (IC₅₀) was calculated in Graphpad Prism software.

Point of comparison: IAVACQPNWMCAGF (Alanine-scan variant L4A of Peptide-180) [Peptide-253], IC50 28.2 µM. Against it:
- IAVLCQPNWMCAGF (cysteine pairing not given here; also: biotinylated, site not given here, PSMA mask peptide) [Peptide-180] — 5.4-fold lower, 5.23 µM
- IAVLCAPNWMCAGF (Alanine-scan variant Q6A of Peptide-180) [Peptide-254] — 1.8-fold lower, 15.7 µM
- B7 — 2.1-fold higher, 60 µM
- B8 — 2.4-fold higher, 67.9 µM
- IAALCQPNWMCAGF (Alanine-scan variant V3A of Peptide-180) [Peptide-252] — 4.9-fold lower, 5.7 µM
- IAVLCQPAWMCAGF (Alanine-scan variant N8A of Peptide-180) [Peptide-256] — 13-fold lower, 2.16 µM
- AAVLCQPNWMCAGF (Alanine-scan variant I1A of Peptide-180) [Peptide-251] — 3.3-fold lower, 8.45 µM

Each binder was assayed against T3, Anti-CD28 scFv (VH - linker 1 - VL) (biotinylated (site not stated)) (assay: clonal phage ELISA; biotinylated anti-CD28 scFv on neutravidin plate, bound phage detected with anti-M13 HRP).
T3 sequence (scFv, as listed by the source): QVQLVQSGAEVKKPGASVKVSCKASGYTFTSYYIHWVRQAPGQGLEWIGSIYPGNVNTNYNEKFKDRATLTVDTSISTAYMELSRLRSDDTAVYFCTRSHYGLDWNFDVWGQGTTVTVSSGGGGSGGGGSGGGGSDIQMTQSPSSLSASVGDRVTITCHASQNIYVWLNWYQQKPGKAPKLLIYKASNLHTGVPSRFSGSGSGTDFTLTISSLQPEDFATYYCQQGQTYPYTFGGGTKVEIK

Point of comparison: B19, “CD28 scFv signal” value 0.707. Against it:
- B9 — lower, 0.671
- B10 — higher, 0.711
- B11 — higher, 2.4
- B12 — lower, 0.497
- B13 — higher, 0.867
- B14 — lower, 0.07
- B15 — higher, 2.12
- B16 — lower, 0.074
- B17 — lower, 0.45
- B18 — lower, 0.089

Target: anti-CD28 Fab
Test: competition ELISA, peptide titrated 0-100 uM against 1 nM anti-CD28 Fab, plate-bound CD28 as competitor
Remark: another data set of the same source
Target sequence in this assay (VH, as listed by the source, chain 1 of 2): as the sequence (VH, as listed by the source, chain 1 of 2) above
Target sequence in this assay (VL, as listed by the source, chain 2 of 2): as the sequence (VL, as listed by the source, chain 2 of 2) above

Point of comparison: YCAGHTEEHYVKCM [Peptide-96], IC50 7.59 µM. Against it:
- YCAGHMPQYEVKCL [Peptide-95] — 5.7-fold higher, 43.6 µM
- YCMGHSHEHIWKCL [Peptide-97] — 9.1-fold higher, 69.1 µM
- YCAGHSHEYLAKCE [Peptide-98] — within 1.5-fold, 7.04 µM
- SCAAGASYAWPYCL [Peptide-92] — 3.2-fold lower, 2.39 µM

Target: T1, PSMA Fab
Test: binding ELISA; PSMA Fab titrated on plate-captured biotinylated peptide
Remark: another data set of the same source

Point of comparison: B3, EC50 4 nM. Against it:
- B2 — 6.2-fold higher, 25 nM
- B4 — 1.9-fold higher, 7.8 nM
- IAVLCQPNWMCAGF (cysteine pairing not given here; also: biotinylated, site not given here, PSMA mask peptide) [Peptide-180] — 26-fold higher, 102 nM
- B5 — 5-fold higher, 20 nM
- B6 — 2.3-fold higher, 9.2 nM

Target: anti-CD28 Fab
Test: competition ELISA, peptide titrated 0-100 uM against 1 nM anti-CD28 Fab, plate-bound CD28 as competitor
Remark: another data set of the same source
Target sequence in this assay (VH, as listed by the source, chain 1 of 2): as the sequence (VH, as listed by the source, chain 1 of 2) above
Target sequence in this assay (VL, as listed by the source, chain 2 of 2): as the sequence (VL, as listed by the source, chain 2 of 2) above

Work on SCAAGASYAWPYCL [Peptide-92] yielded an IC50 of 11.8 µM.

Target: T1, PSMA Fab
Test: competition ELISA; peptide 0-100 µM with 0.3 nM PSMA Fab on plate-captured biotinylated PSMA
Remark: another data set of the same source
Description: as §1

Point of comparison: AMKWCTPRWMCAAE [Peptide-241], IC50 9.16 µM. Against it:
- LMKWCTPRWMCAAE (cysteine pairing not given here; also: biotinylated, site not given here, PSMA mask peptide) [Peptide-179] — within 1.5-fold, 6.49 µM
- LMKWCTPAWMCAAE [Peptide-247] — 2.2-fold higher, 19.7 µM
- LMKWCTPRWMCAAA [Peptide-250] — within 1.5-fold, 6.64 µM
- LMKWCAPRWMCAAE [Peptide-245] — 5.4-fold higher, 49.7 µM
- LMKACTPRWMCAAE [Peptide-244] — 3.8-fold higher, 34.5 µM
- LMAWCTPRWMCAAE [Peptide-243] — 4.5-fold higher, 40.8 µM
- LAKWCTPRWMCAAE [Peptide-242] — within 1.5-fold, 13.7 µM

The binders below were run against T3, Anti-CD28 scFv (VH - linker 1 - VL) (assay: clonal phage ELISA on anti-CD28 scFv plate; wells pre-incubated with soluble CD28 as competitor).
Description: Clonal phage were harvested as crude supernatants and screened via standard enzyme linked immunosorbent assays (ELISAs). […] Prior to the addition of clonal phage, wells were incubated with blocking buffer and CD28 soluble protein or blocking buffer alone. Without washing or aspirating, clonal phage supernatants were then added to the wells and incubated for a short time. Wells were then washed followed by detection of bound phage using a horse radish peroxidase conjugated anti-M13 antibody.

Point of comparison: B14, “CD28 scFv signal in presence of CD28” value 0.076. Against it:
- B9 — higher, 0.078
- B10 — higher, 0.157
- B11 — higher, 0.503
- B12 — higher, 0.138
- B13 — higher, 0.164
- B15 — higher, 0.243
- B16 — lower, 0.073
- B17 — higher, 0.077
- B18 — higher, 0.109
- B19 — higher, 0.08

Each binder was assayed against anti-CD28 Fab (assay: BLI (Octet): biotinylated peptide on streptavidin sensor, anti-CD28 Fab titrated in solution, 1:1 model).
Target sequence in this assay (VH, as listed by the source, chain 1 of 2): as the sequence (VH, as listed by the source, chain 1 of 2) above
Target sequence in this assay (VL, as listed by the source, chain 2 of 2): as the sequence (VL, as listed by the source, chain 2 of 2) above

YCEGHLPEYRNKCL (cysteine pairing not given here; also: biotinylated, site not given here) [Peptide-132] showed a Kd of 110 nM.

Point of comparison: B1, “t1/2” value 1 min. Against it:
- YCEGHLPEYRNKCL (cysteine pairing not given here; also: biotinylated, site not given here) [Peptide-132] — within 1.5-fold, 0.8 min
